Test results reported in paper PMC8796303 (ACS Central Science, 2021).

Target: SARS-CoV-2 spike protein (wild type) (SARS-CoV-2, ancestral (wild type, …, UniProt P0DTC2))
Experiment: lateral flow strip assay

B1: REGN10933 (receptor binding domain binding antibody) (antibody, V domains shown)
VH: QVQLVESGGGLVKPGGSLRLSCAASGFTFSDYYMSWIRQAPGKGLEWVSYITYSGSTIYYADSVKGRFTISRDNAKSSLYLQMNSLRAEDTAVYYCARDRGTTMVPFDYWGQGTLVTVSS
VL: DIQMTQSPSSLSASVGDRVTITCQASQDITNYLNWYQQKPGKAPKLLIYAASNLETGVPSRFSGSGSGTDFTFTISGLQPEDIATYYCQQYDNLPLTFGGGTKVEIK
B1: binds.
